Sequences and labels used below:
B1: mRNA-splicing (parent)
chain: AGUUGCUGCUGGGAGCUCCAGCACAGUGAAAUGGACAGAAGGGCAGAGCAA

The series covers variants of B1. The experiment in a line: exon inclusion enrichment index; higher = more inclusion; WT1 exon 5 minigene, HEK293.
As for C19U A20U, the “exon inclusion enrichment index” value was determined as 1.01. For G5C C6A U7C G8A U10A A30U A31C the value was 0.143. The same measure for G2C U3G: 0.163; for G5A U7C G8A U10C G43U: 1.89; for C6A: 0.079.

For G5C C6A U7C G8A U10A G33U G34A, the “exon inclusion enrichment index” value came to 0.0098. For G5A U7C G8A U10C G33A G34C the value was 0.421; for G5C C6U G8C C9U U10C U27G G28A, 2.11; for G5A C6U U7A G8U C9A G42C, 0.399. On to G5A C6U U7A G8U C9A G42A, for which the “exon inclusion enrichment index” value is 0.446.

On to G5C C6A U7C G8A C9G U10G, for which the “exon inclusion enrichment index” value was 0.11. For G5A U7C G8A U10C A30G A31U the value was 0.691; for G5A C6U U7A G8U C9A A35U C36U, 0.000729; for G5C C6U G8C C9U U10C G38U A39C, 1.39.

With G5A C6U G8C C9A, the “exon inclusion enrichment index” value stood at 0.357. The same measure for G46C A47G: 0.339; for G5A C6U U7A G8U C9A A30C: 0.0649.

As to G5A C6U U7A G8U C9A G33A G34A, the “exon inclusion enrichment index” value was 0.0009. The same measure for G5A C6G U7G C9A A29G A30G: 0.00214; for C6A U7C C9A U10C A20U: 3.39. For C6A U7C C9A U10C A20G the value was 3.85; for U3C G5C C6A U7C G8A U10A, 0.0284; for C6A U7C C9A U10C G42C G43U, 3.6. For G5C C6G U7C U10C C22U A23C the value was 2.02; for G5C C6A U7C G8A U10A G41C, 0.467; for G5A U7C G8A U10C C19G A20U, 2.09.

Consider G5C C6A U7C G8A U10A U17G C18A, for which the “exon inclusion enrichment index” value stood at 0.109.

Regarding G5U G8U C9U A37U G38U, the “exon inclusion enrichment index” value was determined as 0.0252. The same measure for G5C C6A U7C G8A U10A C24U A25G: 0.334; for G5A U7C G8A U10C U32G: 0.244; for G5C C6U G8C C9U U10C U17G C18U: 1.64. Turning to G5C C6A U7C G8A U10A A31U U32A, the “exon inclusion enrichment index” value is 0.00816. On to G5C C6U G8C C9U U10C C44G A45C, for which the “exon inclusion enrichment index” value was found to be 3.14. The same measure for G5C C6A U7C G8A U10A C24G A25G: 0.034. As for G5A U7C G8A C9A U10A, the “exon inclusion enrichment index” value is 0.384. The same measure for C6A U7A C9A U10A G11C G12C: 2.68. For the variant G5C C6U G8C C9U U10C C24A, the “exon inclusion enrichment index” value was found to be 1.72. The same measure for G5A C6U U7A G8U C9A A31U U32A: 0.0012; for G5A C6U U7A G8U C9A G21U C22U: 0.00572; for G5A C6G U7G G8U C9A: 0.00192. The same measure for G5A C6G U7G C9A A30G: 0.00525; for U4A G5C G8U C9U: 0.718; for C6A U7A C9A U10A C24U: 0.161.

With C6A U7C C9A U10C A45C G46A, the “exon inclusion enrichment index” value was determined as 1.88.

With C6A U7C C9A U10C A47G G48U, the “exon inclusion enrichment index” value is 0.925. For the variant G5C C6U G8C C9U U10C A14U G15U, the “exon inclusion enrichment index” value is 0.556. The same measure for C6A U7C C9A U10C A31U U32C: 3.74; for G5A U7C G8A U10C C16A U17C: 1.83; for G5A C6U U7A G8U U10A: 0.0329.

For the variant G5C G8A U10A, the “exon inclusion enrichment index” value was determined as 0.0176. For G5A C6G U7G C9A C36U A37U the value was 0.00084; for G34A A35U, 0.0211; for G33A G34A, 0.0101. For U27A G28U, the “exon inclusion enrichment index” value came to 0.0261. With U3C U4A C6A U7A C9A U10A, the “exon inclusion enrichment index” value worked out at 0.528.

Turning to G5C C6U G8C C9U U10C G43C C44A, the “exon inclusion enrichment index” value amounted to 3.17. The same measure for G5C C6A U7C G8A U10A G43A C44A: 0.532; for G5A U7C G8A U10C G21U C22G: 2.27; for G5A C6U U7A G8U C9A A20G G21C: 0.11. For G5C C6A U7C G8A U10A A35C C36U the value was 0.0111. G5A C6U U7C G8C C9A: the “exon inclusion enrichment index” value amounted to 1.04. The same measure for G5A U7C G8A U10C A29C A30U: 1.35.

As to G5A U7C G8A U10C G15A C16G, the “exon inclusion enrichment index” value came to 1.31. The same measure for G5A C6G U7G C9A A40C: 0.00374. The same measure for G5A U7C G8A U10C A30U: 1.71.

With G5C C6A U7C G8A U10A A45G G46A, the “exon inclusion enrichment index” value was 0.559. With G5C C6U G8C C9U U10C G42C, the “exon inclusion enrichment index” value turned out to be 3.76.

In the case of G5C C6A U7C C9A U10A, the “exon inclusion enrichment index” value turned out to be 0.851. The same measure for G5U G8U C9U G41A G42U: 0.115; for U3A U4G G5U G8U C9U: 0.143. For U3G U4G G5U G8U C9U the value was 0.0141; for G5C C6U G8C C9U U10C G38A A39C, 1.48.

Regarding G5C C6U G8C C9U U10C G38A A39G, the “exon inclusion enrichment index” value amounted to 1.85.

For the variant G5U C6A U7C U10C, the “exon inclusion enrichment index” value amounted to 3.2. The same measure for G5U G8U C9U A40G G41U: 0.107; for G5A C6G U7G C9A G21C C22U: 0.00338. The same measure for C6A U7A C9A U10A C22G A23G: 0.212; for G5C C6U G8C C9U U10C G12C G13A: 0.931; for G5A U7C G8A U10C A45U: 2.8. For G5A C6G U7G C9A A40G G41U the value was 0.00052; for C19G A20C, 2.84; for A47G G48U, 0.00564. Turning to C6A U7C C9A U10C A14U, the “exon inclusion enrichment index” value came out at 1.94. The same measure for G5C C6U G8C C9U U10C G11A G12A: 0.685. The same measure for U3C U4A G5C C6G U7C U10C: 2.55; for A35C C36G: 0.122. The same measure for G5C C6A U7C G8A U10A A47G G48U: 0.00361.

Consider G5C C6A U7C G8A U10A A47G G48C, for which the “exon inclusion enrichment index” value amounted to 0.0266.

Turning to C6A U7A C9A U10A C22A A23C, the “exon inclusion enrichment index” value is 1.39. For G5A U7C G8A U10C A23G the value was 3.56. The same measure for G8A C9U: 0.355; for G5C C6A U7C G8A U10A A30U: 0.0402. The same measure for C6A U7A C9A U10A A47C G48A: 0.547; for C6A U7A C9A U10A A31C U32G: 1.02; for G5U G8U C9U G33C: 0.254. For the variant C6A U7A C9A U10A G48A, the “exon inclusion enrichment index” value stood at 1.3. The same measure for G46A A47G: 0.0433; for G5A C6G U7G C9A A14C G15A: 0.000979. For G5U U7A G8U C9U the value was 0.343; for G5C C6G U7C U10C A31C U32C, 3.85.

As to G5U G8U C9U U32G G33U, the “exon inclusion enrichment index” value is 0.0291.

Regarding G5C C6G U7C U10C G38A A39U, the “exon inclusion enrichment index” value was determined as 0.365. For the variant G5U G8U C9U C19A A20C, the “exon inclusion enrichment index” value stood at 0.0372. The same measure for G5A U7C G8A U10C C19A: 1.39; for G5C C6U G8C C9U U10C A40G G41C: 3.24.

On to G5C C6G U7C U10C U27A G28A, for which the “exon inclusion enrichment index” value came to 3.01.

With G5A C6U U7A G8U C9A A20C, the “exon inclusion enrichment index” value is 0.047. For G46U A47C the value was 0.692; for G5A C6G U7G C9A A20C G21A, 0.00106. The same measure for C6A U7A C9A U10A G13U A14G: 0.553. For C36G the value was 0.0745.

For the variant C6A U7A C9A U10A U27A, the “exon inclusion enrichment index” value turned out to be 0.945. For C6A U7A C9A U10A C44U A45G the value was 0.419.

For the variant A47U G48U, the “exon inclusion enrichment index” value turned out to be 0.125. In the case of G5A C6G U7G C9A G42C G43U, the “exon inclusion enrichment index” value was 0.00749. For G5A U7C G8A U10C G11A G12C, the “exon inclusion enrichment index” value came to 0.699. For G5C C6G U7C U10C C36G A37G the value was 1.19; for U7A G8C, 1.67; for G5A C6G U7G C9A U27A, 0.00261. The same measure for G5C C6U G8C C9U U10C A30U A31U: 1.52; for G5C C6G U7C U10C A23G C24A: 4.41. The same measure for C6U U7C G8A U10A: 0.155. Turning to G5A U7C G8A U10C A29U, the “exon inclusion enrichment index” value came out at 0.801. For G5C C6G U7C U10C A30U A31U the value was 3.18; for G5C C6G U7C U10C A30U A31C, 3.11; for C6A U7C C9A U10C G26U U27G, 4.12. The same measure for G5C C6A U7C G8A U10A C16A U17G: 0.0171; for G5C C6U G8C C9U U10C C16A U17A: 1.38. The same measure for U4C G5U U7C G8A U10C: 1.83; for G5C C6G U7C U10C G13C A14G: 1.61; for C6A U7C C9A U10C A37G G38A: 3. As for G5U G8U C9U A14U G15C, the “exon inclusion enrichment index” value is 0.0163.

In the case of U3C U4C G5A C6G U7G C9A, the “exon inclusion enrichment index” value turned out to be 0.127. For G5C C6G U7C U10C U27C G28U the value was 2.8; for G5A C6G U7G C9A A45U, 0.00141. For G5A U7C G8A U10A G11A the value was 1.07; for G5C C6U G8C C9U U10C U32C, 3.26. The same measure for C6A U7C C9A U10C U32G: 0.701; for A25G: 0.595. Consider G5U G8U C9U C19G A20U, for which the “exon inclusion enrichment index” value was determined as 0.14. For G5A C6U U7A G8U C9A A30G A31G the value was 0.00768. The same measure for U4C C6U U7A G8U C9A: 1.12; for G5A C6G U7G C9A G11A: 0.000945; for G5A C6U U7A G8U C9A G15A C16U: 0.0138.

Turning to G5C C6U, the “exon inclusion enrichment index” value was determined as 0.0627. For C6A U7A C9A U10A G43U C44A the value was 0.0263; for C6A U7C C9A U10C A14C G15A, 2.13; for C6A U7C C9A U10C A35G C36U, 0.107. For G21C C22A the value was 2.18. The same measure for C6A U7A C9A U10A A39U: 0.0237; for G5C C6U C9U U10C: 1.13; for G5A C6G U7G C9A G41C G42A: 0.00376. G5C C6G U7C U10C A39U: the “exon inclusion enrichment index” value was 0.26. For G5C C6U G8C C9U U10C A29U A30C the value was 1.51; for G38U A39C, 0.125; for G5C C6A U7C G8A U10A A39U A40U, 0.036. Take U17A: the “exon inclusion enrichment index” value was 0.131. Consider G5A C6U U7A G8U C9A A35G, for which the “exon inclusion enrichment index” value came out at 0.017.

Regarding U4A G5A C6U U7A G8U C9A, the “exon inclusion enrichment index” value worked out at 0.0542. The same measure for U3A U4C G5A U7C G8A U10C: 2.99; for C6A U7A C9A U10A G34U A35C: 0.203. For C24A A25U the value was 0.16. The same measure for G5U C6G G8C C9U U10C: 1.09. Regarding G5A U7C G8A U10C A25C G26U, the “exon inclusion enrichment index” value was found to be 2.86.

Take G5A U7C G8A U10C C36G A37U: the “exon inclusion enrichment index” value is 1.08. For G5A C6G U7G C9A A39C A40G, the “exon inclusion enrichment index” value was found to be 0.0112. The same measure for C6A U7A C9A U10A G33A: 0.0584.

The values are drawn from the RNAGym collection of RNA variant scans (doi:10.1101/gr.219683.116).
